Measurements from patent publication US20250381305A1, “METHOD FOR TREATING A PARKINSON'S DISEASE” (SINEUGENE THERAPEUTICS CO., LTD., priority 2022, published 2025).
“Also recorded” adds a separate entry of the source.

B1: Coiled-PRYSPRY: TRIM72 truncation with coiled-coil and PRYSPRY domains, expressed by scAAV9 (probably SEQ ID NO: 11) (protein)
chain: QQKLQLQEACMRKEKSVAVLEHQLVEVEETVRQFRGAVGEQLGKMRVFLAALEGSLDREAERVRGEAGVALRRELGSLNSYLEQLRQMEKVLEEVADKPQTEFLMKYCLVTSRLQKILAESPPPARLDIQLPIISDDFKFQVWRKMFRALMPALEELTFDPSSAHPSLVVSSSGRRVECSEQKAPPAGEDPRQFDKAVAVVAHQQLSEGEHYWEVDVGDKPRWALGVIAAEAPRRGRLHAVPSQGLWLLGLREGKILEAHVEAKEPRALRSPERRPTRIGLYLSFGDGVLSFYDASDADALVPLFAFHERLPRPVYPFFDVCWHDKGKNAQPLLLV
modifications: expressed by scAAV9; TRIM72 coiled-coil domain plus PRYSPRY domain (135-470aa)
B2: PRYSPRY single domain: TRIM72 truncation with the PRYSPRY domain only, 278aa-470aa (probably SEQ ID NO: 6) (protein)
chain: RKMFRALMPALEELTFDPSSAHPSLVVSSSGRRVECSEQKAPPAGEDPRQFDKAVAVVAHQQLSEGEHYWEVDVGDKPRWALGVIAAEAPRRGRLHAVPSQGLWLLGLREGKILEAHVEAKEPRALRSPERRPTRIGLYLSFGDGVLSFYDASDADALVPLFAFHERLPRPVYPFFDVCWHDKGKNAQPLLLV
modifications: human TRIM72 PRYSPRY domain (278-470 aa)
B3: coiled-coil single domain: TRIM72 truncation with the coiled-coil domain only, 135aa-232aa (probably SEQ ID NO: 5) (protein)
chain: QQKLQLQEACMRKEKSVAVLEHQLVEVEETVRQFRGAVGEQLGKMRVFLAALEGSLDREAERVRGEAGVALRRELGSLNSYLEQLRQMEKVLEEVADK
modifications: human TRIM72 coiled-coil domain (135-232 aa)
B4: TRIM72: full-length TRIM72 protein with Ring finger, B-box, coiled-coil and PRYSPRY domains, overexpressed by lentivirus or scAAV9 (protein, listed as Homo sapiens)
chain: MSAAPGLLHQELSCPLCLQLFDAPVTAECGHSFCRACLGRVAGEPAADGTVLCPCCQAPTRPQALSTNLQLARLVEGLAQVPQGHCEEHLDPLSIYCEQDRALVCGVCASLGSHRGHRLLPAAEAHARLKTQLPQQKLQLQEACMRKEKSVAVLEHQLVEVEETVRQFRGAVGEQLGKMRVFLAALEGSLDREAERVRGEAGVALRRELGSLNSYLEQLRQMEKVLEEVADKPQTEFLMKYCLVTSRLQKILAESPPPARLDIQLPIISDDFKFQVWRKMFRALMPALEELTFDPSSAHPSLVVSSSGRRVECSEQKAPPAGEDPRQFDKAVAVVAHQQLSEGEHYWEVDVGDKPRWALGVIAAEAPRRGRLHAVPSQGLWLLGLREGKILEAHVEAKEPRALRSPERRPTRIGLYLSFGDGVLSFYDASDADALVPLFAFHERLPRPVYPFFDVCWHDKGKNAQPLLLVGPEGAEA
B5: TRIM40: other TRIM protein overexpressed in N2a cell line by scAAV9 infection, as comparison (protein, UniProt Q3UWA4 1-246, looked up)
chain: MGSLDKDNQDICPICLDPLKEAVSTDCRHLFCRMCLTQHMDKASVSGILSCPVCRKPCSEGVLGDNYICHTHQKRVRRFCEASGHLLCEECLQSPEHQSHTELSIENAISHYKERLNRRSRKLRKDLGNLQQLKAQEKKMLQALQVDCECHRLRTDLQNQDQTKEQLKALPWHWLDQEDLPEEVAKIFSFSEAVTQLSILVSGLERMAKDLDASTLKDASDLLDRSAPQKLEGLLSRVSPAGPKLS
modifications: full-length
notes: other TRIM protein overexpressed in N2a cell line by scAAV9 infection, as comparison
B6: C242A: Flag-tagged TRIM72 mutant, cysteine at position 242 substituted by alanine; blocks oligomer formation (protein, UniProt Q1XH17 1-477, looked up, variant C242A)
Tripartite motif-containing …: MSAAPGLLRQELSCPLCLQLFDAPVTAECGHSFCRACLIRVAGEPAADGTVACPCCQAPTRPQALSTNLQLSRLVEGLAQVPQGHCEEHLDPLSIYCEQDRTLVCGVCASLGSHRGHRLLPAAEAQARLKTQLPQQKMQLQEACMRKEKTVAVLEHQLVEVEETVRQFRGAVGEQLGKMRMFLAALESSLDREAERVRGDAGVALRRELSSLNSYLEQLRQMEKVLEEVADKPQTEFLMKFALVTSRLQKILSESPPPARLDIQLPVISDDFKFQVWKKMFRALMPALEELTFDPSSAHPSLVVSSSGRRVECSDQKAPPAGEDTRQFDKAVAVVAQQLLSQGEHYWEVEVGDKPRWALGVMAADASRRGRLHAVPSQGLWLLGLRDGKILEAHVEAKEPRALRTPERPPARIGLYLSFADGVLAFYDASNPDVLTPIFSFHERLPGPVYPIFDVCWHDKGKNAQPLLLVGPEQEQA
modifications: Flag tag
B7: C14A: Flag-tagged TRIM72 mutant, cysteine at position 14 substituted by alanine; E3 ligase inactive (protein, UniProt Q1XH17 1-477, looked up, variant C14A)
Tripartite motif-containing …: MSAAPGLLRQELSAPLCLQLFDAPVTAECGHSFCRACLIRVAGEPAADGTVACPCCQAPTRPQALSTNLQLSRLVEGLAQVPQGHCEEHLDPLSIYCEQDRTLVCGVCASLGSHRGHRLLPAAEAQARLKTQLPQQKMQLQEACMRKEKTVAVLEHQLVEVEETVRQFRGAVGEQLGKMRMFLAALESSLDREAERVRGDAGVALRRELSSLNSYLEQLRQMEKVLEEVADKPQTEFLMKFCLVTSRLQKILSESPPPARLDIQLPVISDDFKFQVWKKMFRALMPALEELTFDPSSAHPSLVVSSSGRRVECSDQKAPPAGEDTRQFDKAVAVVAQQLLSQGEHYWEVEVGDKPRWALGVMAADASRRGRLHAVPSQGLWLLGLRDGKILEAHVEAKEPRALRTPERPPARIGLYLSFADGVLAFYDASNPDVLTPIFSFHERLPGPVYPIFDVCWHDKGKNAQPLLLVGPEQEQA
modifications: Flag tag

system: N2a cell line; assay: CCK-8 cell viability after H2O2 treatment, expression by scAAV9 infection; type: cell-based; conditions: scAAV9 infection MOI 10,000 vg/cell, H2O2 300 μM, 1 hour
Procedure: (§1) Cell viability was assessed using CCK-8. Cells were seeded in a 96-well plate at a density of 1.5×10^3cells per well for Arsenite treatment or 7×10^3 cells per well for H2O2 treatment. Arsenite (Sigma) was added into each well at concentration of 0.125 mM, 0.25 mM or 0.5 mM, and washed the cells after 2 hours incubation at 37° C. For H2O2-treatment experiment, scAAV9 infection (estimated multiplicity of infection (MOI): 10,000 vg/cell) was done for 24 hours at 17 hours after cell seeding. Then, H2O2 was added into each well at concentration of 300 μM, and washed the cells after 1 hours incubation at 37° C. When the cell has been processed by Arsenite or H202. a total of 10 μL of CCK-8 solution (Yeasen) was added to each well. After another 2 hours of incubation at 37° C., the optical density (OD) value of each well was measured using a microplate reader with an excitation wavelength of 450 nm. The cell viability of 293 FT was calculated. The experiment was repeated at least three times to obtain the mean value.
To further investigate which key domains of TRIM72 protein are necessary to protect neurons, different domain-deleted TRIM72 were constructed and overexpressed in N2a cell line by scAAV9 infection (FIG. 1). CCK-8 was used to measure the cell viability after H2O2 treatment. Indeed, cell viability was decreased after H2O2 treatment (FIG. 10).
CCK-8 was used to measure the cell viability after H2O2 treatment.

Molecule | cell viability under H2O2 stress (protective effect)
B1 | sufficient to protect cells from oxidative stress
B2 | sufficient to protect cells from oxidative stress
B3 | not the coiled-coil single domain was sufficient to protect cells from oxidative stress
B4 | elicit protective effects from oxidative stress
B5 | rather than TRIM40 elicit protective effects from oxidative stress

system: 293 FT; assay: Cell viability after stress challenge, TRIM72 point mutants; type: cell-based; conditions: Flag-tagged point mutants vs wildtype; oxidative stress
Procedure: For TRIM72 stable expression cell line construction, DNA fragments of the series of Flag-tagged TRIM72 mutants or domain deletion or single domain were amplified from the corresponding TRIM72 expression vector by PCR and inserted into pLJM1-EGFP lentiviral vector between BsrGI and EcoRI sites to generate the series of Flag-tagged TRIM72 mutants or domain deletion or single domain fused with EGFP in lentiviral vector.
as §1, with “When the cell has been processed by Arsenite or H202. a total of 10 μL of CCK-8 solution (Yeasen) was added to each well.” left out, “The experiment was repeated at least three times to obtain the mean value.” left out
Previous study determined that TRIM72 senses changes in the oxidative environment and forms oligomer complex to complete membrane repair. […]

Molecule | cell viability after stress challenge (protective effect of TRIM72 mutants)
B6 | abolished the anti-stress effect of TRIM72; also recorded: blocked TRIM72 protective effect
B7 | reserved equal protective effect to wildtype
